In patent US8758746B2, “Fertilization modulation compounds and process for implementing them” (Universite Joseph Fourier, priority 2009, dated 2014):
“And” between values parts separate entries of the source, which are not always exact repeats. Equal entries are not always repeated. “Also recorded” adds a separate entry of the source.

How the values were obtained:
sperm and oocytes [1] = assay: In vitro fertilization (IVF), two-cell embryos scored at 24 h; type: cell-based, mouse; conditions: for comparison with mGX sPLA2 effect (FIG. 7): around 10 μM, 45 min during capacitation or 4 h after gamete mixing
spermatozoa = conditions: inhibitors of PLA2; Roldan and Fragio 1993; Llanos et al 1993; cited from earlier work
[2] = tested on: Sperm cells from caudae epididymes; assay: Acrosome reaction assay (coomassie blue staining); type: cell-based, mouse; conditions: for ability to trigger acrosome reaction (AR) / AR induced above basal spontaneous level of AR: uncapacitated sperm; for ability to trigger acrosome reaction (AR): incubated 10 min with sPLA2 (200 nM in FIG. 2A; pro-mGX at 200 nM)
Protocol: Sperm cells from caudae epididymes were allowed to swim in M2 medium for 10 min. Then, sperms were incubated, if necessary, with different sPLA2 in M16 medium at 37° C. for 10 min. Cells were transferred in PBS solution and then fixed with 4% PFA solution for 2 min. Sperm was washed with 100 mM ammonium acetate for 2 min and wet-mounted on slides and allowed to air dry. Slides were then rinsed with water and stained with coomassie blue (0.22%) for 2 min and finally rinsed with water. Slides were counted immediately and 150 sperm cells were scored at least.
The rate of AR increase from 20%, corresponding to spontaneous acrosome-reacted sperm, to 60% in the presence of 200 nM active sPLA2. In order to better characterize the potency of such compounds to trigger AR, dose-response curves for mGX and mGIIA were realized (FIG. 2B).
Sperm were capacitated with 2% BSA in M16 medium, in a 5% CO2 incubator at 37° C. At 45 and 80 min, 200 nM of mGX was introduced in the capacitation medium and sperm were fixed 10 min later. The rates of acrosome-reacted sperm observed in the presence of sPLA2 were compared with control sperm capacitated during 55 or 90 min in the capacitation medium (FIG. 2C). […] Moreover, the difference between spontaneous AR and total rate, corresponding to the sPLA2-induced fraction, was around stable throughout the capacitation progress: ≈39%, ≈36% and ≈35% at 10, 55 and 90 min respectively. It is important to notice that a small fraction of sperm of around 20% was reluctant to spontaneous AR or sPLA2-induced AR even in the presence of a high level of spontaneous AR.

Sperm cells = assay: Electron microscopy of sPLA2-induced acrosome reaction; type: cell-based, mouse; conditions: uncapacitated sperm
Protocol: Sperm cells were fixed with 2.5% glutaraldehyde in 0.1 M cacodylate buffer pH 7.4 during 2 hours at room temperature. Cells were then washed with buffer and post fixed with 1% Osmium tetroxyde in the same buffer during 1 hour at 4° C. After extensive washing with water cells were then stained with 0.5% uranile acetate pH 4 overnight at 4° C. Cells were then dehydrated through graded alcohol (30%-60%-90%-100%-100%-100%) and infiltrate with a mix of 1/1 epon/alcohol 100% during 1 hour before several bath of fresh epon (Flukka) during 3 hours. Finally, cells were centrifugated and immersed in fresh Epon and polymerised during 3 days at 60° C. Ultrathin sections of the cell pellet were cut with an ultramicrotome (Leica). Sections were post-stained with 4% uranile acetate and 1% lead citrate before being observed in an electron microscope at 80 kV (JEOL 1200EX).
It was important to check with electron microscopy (EM) that sPLA2 induced a morphologically normal acrosome reaction. The morphological criteria by which an acrosome reaction is evaluated to be normal are relatively limited: first, the outer acrosomal membrane should present vesiculation, second, the plasma membrane should fuse with the outer acrosomal membrane and present a characteristic double hair pin shape at the base of the acrosome (Green, D. P. (1978) The induction of the acrosome reaction in guinea-pig sperm by the divalent metal cation ionophore A23187. J. Cell Sci., 32:137-51.:137-151.)
For these experiments, uncapacitated sperm was used in order to reduce the contribution of spontaneous AR and 200 nM sPLA2 to get maximum sPLA2-induced AR. Sperm were incubated 10 min with mGX sPLA2 or the calcium ionophore A23187 and then fixed. In the presence of A23187, all acrosome-reacted sperm presented complete AR, with the 3 morphological criteria, as described above.

sperm and oocytes [3] = assay: In vitro fertilization (IVF), two-cell embryos scored at 24 h; type: cell-based, mouse; conditions: for rate of IVF (effect in words): OF1 sperm treated 10 min with 20 or 200 nM mGX
Protocol: Sperm cells, obtained by manual trituration of caudae epididymes from OF1 male mice, were allowed to swim in M2 medium for 10 min. Then, the sperm cells were transferred in M16 medium containing 2% BSA (Bovine Serum Albumen) and incubated 35 min for capacitation. After centrifugation, cells were then transferred in M16 medium and if necessary, incubated with 20 or 200 nM of mGX sPLA2 for 10 min. Sperm cells were centrifugated (1200 rpm, 5 min) and re-suspended in M16 medium to remove […] sPLA2 before to be used for in vitro fertilization experiment. All experiments were carried out at 37° C. Eggs were collected from mature OF1 females (6-weeks old) synchronized with 7.5 units of PMSG (pregnant mare serum gonadotrophin) and 7.5 units of hCG (human chorionic gonadotrophin) before collection.
IVF using standard protocols were carried out. Eggs were incubated with approximately 10^4 sperm cells, and unbound sperms were washed away after 4 hours of incubation. Twenty four hours after fertilization, the two-cell embryos stages (FIG. 4) were scored as an indication of successful fertilization (FIGS. 5 and 6).
In vitro fertilizations (IVF) were realized with sperm capacitated 35 min in 2% BSA and then treated 10 min with 20 or 200 nM mGX. Before treated sperm were introduced within oocytes, sperm were washed and centrifuged to remove sPLA2 in order to avoid artefact effects of sPLA2 on sperm-oocyte fusion (Riffo and Parraga, 1997). sPLA2 contaminant in the IVF medium was below 1 nM for sperm treated at 200 nM.

**Q.** With Lysophosphocholine [LPC] as the molecule, how does the “rescue of fertilization decreased by LY329722” value (sperm and oocytes [1]; LPC 1 μM during capacitation with LY329722 2 μM (FIG. 8)) read?
**A.** rescued

**Q.** And the “comparison with mGX sPLA2 effect (FIG. 7)” value (sperm and oocytes [1])?
**A.** mimic mGX sPLA2

**Q.** With `CCCCC/C=C\C/C=C\C/C=C\C/C=C\CCCC(=O)O` [arachidonic acid] as the molecule, how does the “comparison with mGX sPLA2 effect (FIG. 7)” value (sperm and oocytes [1]) read?
**A.** mimic mGX sPLA2

**Q.** Which “effect on calcium-ionophore induced acrosome reaction” value (spermatozoa) does the source give for `O=C(CBr)c1ccc(Br)cc1` [4-bromophenacyl bromide] here?
**A.** block

**Q.** For `CCN(CC)CCCC(C)Nc1c2ccc(Cl)cc2nc2ccc(OC)cc12` (centres unmarked) [mepacrine], which “effect on calcium-ionophore induced acrosome reaction” value (spermatozoa) is on record?
**A.** block

B1: mGV: Recombinant mouse group V secreted phospholipase A2 (protein, UniProt P97391 21-137, looked up)
Phospholipase A2 group V: GLLELKSMIEKVTGKNAFKNYGFYGCYCGWGGRGTPKDGTDWCCQMHDRCYGQLEEKDCAIRTQSYDYRYTNGLVICEHDSFCPMRLCACDRKLVYCLRRNLWTYNPLYQYYPNFLC
**Q.** With B1 as the molecule, how does the “ability to trigger acrosome reaction (AR)” value (shortened to “ability … (AR)”) [2] read?
**A.** trigger acrosome reaction

B2: pro-mGX: the inactive pro-enzyme (precursor molecule) of mGX (protein, UniProt Q9QXX3 18-151, looked up)
pro-form: EATRRSHVYKRGLLELAGTLDCVGPRSPMAYMNYGCYCGLGGHGEPRDAIDWCCYHHDCCYSRAQDAGCSPKLDRYPWKCMDHHILCGPAENKCQELLCRCDEELAYCLAGTEYHLKYLFFPSILCEKDSPKCN
modifications: pro-form
**Q.** Which results are given for B2?
**A.** ability to trigger acrosome reaction (AR) [2]: unable to trigger AR; ability to trigger acrosome reaction (AR) ([2]; listed as Pro-mGX): unable to trigger sperm acrosome reaction

B3: mGIIA: Recombinant mouse group IIA secreted phospholipase A2 (protein, UniProt P31482 22-146, looked up)
Phospholipase A2, membrane …: NIAQFGEMIRLKTGKRAELSYAFYGCHCGLGGKGSPKDATDRCCVTHDCCYKSLEKSGCGTKLLKYKYSHQGGQITCSANQNSCQKRLCQCDKAAAECFARNKKTYSLKYQFYPNMFCKGKKPKC
**Q.** With B3 as the molecule, how does the “AR induced above basal spontaneous level of AR” value ([2]; 2 nM sPLA2) read?
**A.** around 20%

**Q.** And the “ability … (AR)” value [2]?
**A.** trigger acrosome reaction; also recorded: able to trigger AR

B4: mGX: Recombinant mouse group X secreted phospholipase A2 (protein, UniProt Q9QXX3 29-151, looked up)
Group 10 secretory …: GLLELAGTLDCVGPRSPMAYMNYGCYCGLGGHGEPRDAIDWCCYHHDCCYSRAQDAGCSPKLDRYPWKCMDHHILCGPAENKCQELLCRCDEELAYCLAGTEYHLKYLFFPSILCEKDSPKCN
**Q.** For B4, which “ability of mGX to trigger AR with 2 mM Ni2+” value ([2]; 200 nM mGX, 2 mM Ni2+ in the bath, n=3) is on record?
**A.** block

**Q.** What about the “sPLA2-induced fraction (difference between total rate and spontaneous AR)” value ([2]; 200 nM mGX, 10 min (non-capacitated sperm)) of the same molecule?
**A.** ≈ 39%

**Q.** What about the “ability of mGX to trigger AR without external calcium” value ([2]; 200 nM mGX, 10 min, external calcium removed, n=3) of the same molecule?
**A.** block

**Q.** What about the “sPLA2-induced fraction (difference between total rate and spontaneous AR)” value ([2]; 200 nM mGX, 55 min of capacitation in 2% BSA) of the same molecule?
**A.** ≈ 36%

**Q.** What about the “sPLA2-induced fraction (difference between total rate and spontaneous AR)” value ([2]; 200 nM mGX, 90 min of capacitation in 2% BSA) of the same molecule?
**A.** ≈ 35%

**Q.** And the “very low dose from which AR is triggered” value ([2]; capacitated and uncapacitated sperm, in the absence of oocytes)?
**A.** 0.2 nM

**Q.** What about the “total rate of acrosome-reacted sperm versus control” value ([2]; capacitated sperm (2% BSA, 55 or 90 min), 200 nM mGX for the last 10 min) of the same molecule?
**A.** able to trigger acrosome reaction; also recorded: increased at all capacitation durations

**Q.** And the “AR induced above basal spontaneous level of AR” value ([2]; 0.2 nM sPLA2)?
**A.** 15%

**Q.** And the “AR induced above basal spontaneous level of AR” value ([2]; 0.2 nM sPLA2, listed as mGX sPLA2)?
**A.** around 20%

**Q.** What about the “ability … (AR)” value [2] of the same molecule?
**A.** trigger acrosome reaction; also recorded: able to trigger AR

**Q.** What about the “kinetic of induced AR compared with A23187” value (Sperm cells; 200 nM, 10 min) of the same molecule?
**A.** slower

**Q.** And the “morphology of induced acrosome reaction (electron microscopy)” value (Sperm cells; incubated 10 min (200 nM sPLA2))?
**A.** normal morphological feature

**Q.** And the “rate of IVF (effect in words)” value (sperm and oocytes [3])?
**A.** promotes fertilization

**Q.** What about the “rate of IVF (effect in words)” value (sperm and oocytes [3]; listed as mGX sPLA2) of the same molecule?
**A.** increased

**Q.** And the “fertilization outcome (2 cell embryo at 24 h post fertilization)” value (sperm and oocytes [3]; sPLA2 at 200 nM (FIG. 7))?
**A.** improve fertilization outcome

**Q.** What about the “rate of two cells embryos stage at 24 hours (IVF rate)” value (sperm and oocytes [3]; sperm from OF1 males treated 10 min with 200 nM mGX, control 45% (44.0±8.9%)) of the same molecule?
**A.** 65% and 65.4 ± 5.6%

**Q.** What about the “increase of fertilization rate versus non-treated sperm” value (sperm and oocytes [1]; C57Bl/6 strain, mGX treated sperm (200 nM)) of the same molecule?
**A.** 142%

**Q.** What about the “control IVF with sPLA2 present during sperm-oocyte incubation” value (sperm and oocytes [1]; sperm and oocytes incubated with 1 nM mGX) of the same molecule?
**A.** no difference was noticed

**Q.** What about the “rate of two-cells embryos stage at 24 hours” value (sperm and oocytes [1]; sperm from C57Bl/6 males treated with 200 nM mGX, control 8.2%) of the same molecule?
**A.** 19.9%
